Results from US20220332804A1 (CSL INNOVATION, published 2022).

What was measured:
Test in all cases: SPR, KD relative to WT C2;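 note: biacore SPR at 37 °C, anti-C2 mAbs captured on anti-human IgG chips with alanine or serine point mutants of C2 as analyte, KD from 1:1 fit compared with wild-type C2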
human C2 M316A = target: T1, human C2 M316A (human, UniProt P06681 21-752)
T1 sequence: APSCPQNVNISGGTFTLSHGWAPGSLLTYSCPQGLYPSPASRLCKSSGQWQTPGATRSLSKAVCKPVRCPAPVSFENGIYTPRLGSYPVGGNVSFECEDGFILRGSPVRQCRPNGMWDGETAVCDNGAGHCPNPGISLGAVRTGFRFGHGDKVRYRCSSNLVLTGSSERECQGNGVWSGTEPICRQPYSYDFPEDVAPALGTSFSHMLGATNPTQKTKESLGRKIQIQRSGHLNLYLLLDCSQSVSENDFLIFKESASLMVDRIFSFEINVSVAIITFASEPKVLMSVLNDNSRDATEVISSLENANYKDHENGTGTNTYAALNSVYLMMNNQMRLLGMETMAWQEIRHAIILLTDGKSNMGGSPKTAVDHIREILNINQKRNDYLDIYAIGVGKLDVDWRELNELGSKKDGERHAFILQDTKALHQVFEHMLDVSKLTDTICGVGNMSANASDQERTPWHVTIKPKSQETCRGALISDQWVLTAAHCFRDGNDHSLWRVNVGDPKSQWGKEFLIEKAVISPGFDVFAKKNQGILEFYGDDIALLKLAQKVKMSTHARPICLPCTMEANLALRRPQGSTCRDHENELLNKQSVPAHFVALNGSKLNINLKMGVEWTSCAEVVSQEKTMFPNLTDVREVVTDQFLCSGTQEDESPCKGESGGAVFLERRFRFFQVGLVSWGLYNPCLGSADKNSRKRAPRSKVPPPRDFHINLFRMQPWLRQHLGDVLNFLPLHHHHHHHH

human C2 K244A = target: T2, human C2 K244A (human, UniProt P06681 21-752)
T2 sequence: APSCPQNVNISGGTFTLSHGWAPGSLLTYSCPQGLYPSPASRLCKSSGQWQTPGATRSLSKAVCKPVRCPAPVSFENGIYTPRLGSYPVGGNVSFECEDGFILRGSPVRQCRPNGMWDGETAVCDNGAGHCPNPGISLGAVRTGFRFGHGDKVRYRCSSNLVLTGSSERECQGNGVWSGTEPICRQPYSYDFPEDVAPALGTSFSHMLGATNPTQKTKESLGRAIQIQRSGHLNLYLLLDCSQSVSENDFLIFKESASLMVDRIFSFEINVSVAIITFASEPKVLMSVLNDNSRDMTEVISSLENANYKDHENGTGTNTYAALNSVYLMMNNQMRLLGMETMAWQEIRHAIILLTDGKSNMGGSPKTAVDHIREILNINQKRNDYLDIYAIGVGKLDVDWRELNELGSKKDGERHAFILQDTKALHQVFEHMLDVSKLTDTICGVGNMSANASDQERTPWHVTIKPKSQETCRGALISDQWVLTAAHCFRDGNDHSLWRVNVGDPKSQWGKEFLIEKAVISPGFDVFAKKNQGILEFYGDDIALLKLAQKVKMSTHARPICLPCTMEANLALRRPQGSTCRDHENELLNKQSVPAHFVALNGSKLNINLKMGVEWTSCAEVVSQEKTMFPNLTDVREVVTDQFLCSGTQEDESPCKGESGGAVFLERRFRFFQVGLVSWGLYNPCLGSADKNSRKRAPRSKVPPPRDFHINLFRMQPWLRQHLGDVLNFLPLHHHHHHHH

human C2 A444S = target: T3, human C2 A444S (human, UniProt P06681 21-752)
T3 sequence: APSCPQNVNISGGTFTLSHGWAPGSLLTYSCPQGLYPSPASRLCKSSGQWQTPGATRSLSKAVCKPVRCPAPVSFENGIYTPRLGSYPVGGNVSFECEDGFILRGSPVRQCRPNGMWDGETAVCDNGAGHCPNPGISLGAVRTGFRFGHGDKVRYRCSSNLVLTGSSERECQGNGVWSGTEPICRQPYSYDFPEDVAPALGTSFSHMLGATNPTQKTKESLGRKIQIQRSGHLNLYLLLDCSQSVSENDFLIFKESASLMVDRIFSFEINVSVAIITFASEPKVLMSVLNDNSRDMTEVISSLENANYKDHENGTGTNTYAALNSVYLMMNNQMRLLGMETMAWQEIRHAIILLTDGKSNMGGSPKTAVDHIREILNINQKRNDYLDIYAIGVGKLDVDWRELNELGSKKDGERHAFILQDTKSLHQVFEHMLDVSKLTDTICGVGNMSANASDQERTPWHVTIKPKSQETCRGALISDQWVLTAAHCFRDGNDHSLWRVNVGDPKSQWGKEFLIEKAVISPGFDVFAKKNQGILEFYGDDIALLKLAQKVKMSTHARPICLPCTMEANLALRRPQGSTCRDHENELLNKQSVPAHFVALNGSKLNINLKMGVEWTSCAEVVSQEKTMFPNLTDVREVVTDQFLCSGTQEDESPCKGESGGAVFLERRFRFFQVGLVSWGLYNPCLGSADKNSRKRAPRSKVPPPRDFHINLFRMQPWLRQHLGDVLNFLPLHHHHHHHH

human C2 N467A = target: T4, human C2 N467A (human, UniProt P06681 21-752)
T4 sequence: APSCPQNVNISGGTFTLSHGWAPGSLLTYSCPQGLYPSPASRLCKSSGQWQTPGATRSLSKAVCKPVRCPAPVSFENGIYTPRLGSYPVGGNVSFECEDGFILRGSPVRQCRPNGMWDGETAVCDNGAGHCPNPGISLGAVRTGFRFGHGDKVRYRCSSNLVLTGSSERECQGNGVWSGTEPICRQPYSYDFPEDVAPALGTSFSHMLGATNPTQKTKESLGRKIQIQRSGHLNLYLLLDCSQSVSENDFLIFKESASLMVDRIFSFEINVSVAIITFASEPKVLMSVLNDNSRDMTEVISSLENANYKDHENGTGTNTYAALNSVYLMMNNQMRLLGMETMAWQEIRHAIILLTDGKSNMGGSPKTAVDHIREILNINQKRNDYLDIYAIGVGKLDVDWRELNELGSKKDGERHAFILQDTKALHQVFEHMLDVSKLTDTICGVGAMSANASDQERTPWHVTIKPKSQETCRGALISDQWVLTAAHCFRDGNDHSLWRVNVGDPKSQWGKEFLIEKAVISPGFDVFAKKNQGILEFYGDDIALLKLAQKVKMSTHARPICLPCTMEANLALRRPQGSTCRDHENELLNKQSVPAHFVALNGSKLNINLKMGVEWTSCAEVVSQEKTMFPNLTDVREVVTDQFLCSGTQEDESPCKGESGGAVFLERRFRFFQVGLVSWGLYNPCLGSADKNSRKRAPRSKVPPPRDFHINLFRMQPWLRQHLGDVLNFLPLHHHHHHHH

B1: RF16-242 (antibody, human IgG4 S228P, lambda, V domains shown)
VH: EVQLLQSGAEVKKPGESLKISCKGSGYSFTSYWIGWVRQMPGKGLEWMGIIYPGDSDTRYSPSFQGQVTISADKSISTAYLQWSSLKASDTAMYYCARRGHYGDYFDYWGQGTLVTVSS
VL: SYELTQPPSVSVSPGQTARITCSGDALPKKYAYWYHQKSGQAPVLVIYEDRRRPSEIPERFSGSSSGTMATLTITGAQVEDEGVYFCYSRDRAGNQRVFGGGTQLTVLG
notes: pH-dependent anti-C2 antibody from a phage display library
Human C2 M316A
  Fold diff: 1 fold
Human C2 K244A
  Fold diff: 4 fold
Human C2 A444S
  Fold diff: 3 fold
Human C2 N467A
  Fold diff: 2 fold
